Test results: article PMC4280530, “Uniform Orientation of Biotinylated Nanobody as an Affinity Binder for Detection of Bacillus thuringiensis (Bt) Cry1Ac Toxin” (Toxins, 2014)

Target: T1, Cry1F toxin (Bacillus thuringiensis, strain not …, UniProt Q03746)
T1 construct: Cry1F toxin of Bacillus thuringiensis, member of the Cry1 family; Commercial toxin
Assay: ELISA
Settings: both partners purified

T1 sequence (Q03746 whole entry): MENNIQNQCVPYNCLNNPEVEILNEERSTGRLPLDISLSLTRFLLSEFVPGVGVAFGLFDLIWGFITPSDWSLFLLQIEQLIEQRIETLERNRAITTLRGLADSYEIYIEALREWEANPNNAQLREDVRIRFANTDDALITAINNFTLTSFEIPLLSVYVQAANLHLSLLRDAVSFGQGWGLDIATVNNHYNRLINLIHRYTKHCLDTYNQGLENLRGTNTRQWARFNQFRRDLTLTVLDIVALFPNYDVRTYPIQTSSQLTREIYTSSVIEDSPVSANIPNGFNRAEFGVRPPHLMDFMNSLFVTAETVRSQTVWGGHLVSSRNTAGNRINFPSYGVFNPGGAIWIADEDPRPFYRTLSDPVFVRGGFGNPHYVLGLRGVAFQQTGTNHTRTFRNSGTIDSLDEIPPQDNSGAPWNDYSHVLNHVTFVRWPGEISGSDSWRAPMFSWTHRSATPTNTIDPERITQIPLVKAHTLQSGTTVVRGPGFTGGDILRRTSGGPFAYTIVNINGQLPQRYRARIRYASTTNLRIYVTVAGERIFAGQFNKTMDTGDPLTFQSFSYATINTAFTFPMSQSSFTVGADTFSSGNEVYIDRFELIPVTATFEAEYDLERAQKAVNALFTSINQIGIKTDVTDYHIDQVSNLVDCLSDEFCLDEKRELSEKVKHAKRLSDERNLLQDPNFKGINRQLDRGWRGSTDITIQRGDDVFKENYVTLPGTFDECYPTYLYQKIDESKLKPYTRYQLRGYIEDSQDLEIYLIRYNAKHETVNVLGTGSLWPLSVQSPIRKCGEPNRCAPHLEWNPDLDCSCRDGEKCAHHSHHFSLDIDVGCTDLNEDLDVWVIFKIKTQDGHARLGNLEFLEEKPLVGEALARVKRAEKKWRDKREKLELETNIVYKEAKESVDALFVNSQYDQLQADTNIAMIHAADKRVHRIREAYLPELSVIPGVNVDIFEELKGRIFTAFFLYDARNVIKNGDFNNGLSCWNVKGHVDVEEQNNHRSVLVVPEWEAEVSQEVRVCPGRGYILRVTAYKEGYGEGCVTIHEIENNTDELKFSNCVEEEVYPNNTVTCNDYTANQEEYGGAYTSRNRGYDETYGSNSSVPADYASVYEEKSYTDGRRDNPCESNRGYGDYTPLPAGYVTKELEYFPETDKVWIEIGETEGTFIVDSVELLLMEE

Binder	binding result
anti-Cry1Ac nanobody Nb61 (VHH, VHH from an immunised dromedary, in pMECS; HA tag is known from the detection with anti-HA tag antibody; also called Cry1Ac Nb61; source: E. coli WK6, periplasm, purified (Ni-NTA / His-Select IMAC); periplasmic extract in PE-ELISA) VHH: QVQLQESGGGSVQAGGSLRLSCEASENTYNSVYMAWFRQAPEKEREGVAVLSTGGGRTYYTDSVKGRFTISRDNAKNMVYLQMNSLKPDDTAMYYCAATYTGDSYGPSLYYLTPGRYEYWGQGTQVTVSS	no binding (tested: 10 μg·mL^−1)
anti-Cry1Ac nanobody Nb44 (VHH, VHH from an immunised dromedary, in pMECS; HA tag is known from the detection with anti-HA tag antibody; also called Cry1Ac Nb44; source: E. coli WK6, periplasm, purified (Ni-NTA / His-Select IMAC); periplasmic extract in PE-ELISA) VHH: QVQLQESGGGSVQAGGSLRLSCATSGLTYSARITWFRQAPEKEREGVATFSTGSGSTGYADSVKGRFTISQDNAKNTLYLQMNNLKPEDTAMYYCAADTSTSWRDIVLVARYKYWGQGTQVTVSS	no binding (tested: 10 μg·mL^−1)
